Square brackets hold non-standard residues; d marks the D form. Primed or numbered codes have the meaning given here. Side chains are listed from the residue outwards. Ends that are not written are not given here. * marks the point of attachment. DOTA = O=C(O)CN1CCN(CC(=O)O)CCN(CC(=O)*)CCN(CC(=O)O)CC1; Biotin = O=C1N[C@H]2[C@H](CS[C@H]2CCCCC(=O)*)N1; Butanoyl(4-(4-I-phenyl)) = O=C(CCCc1ccc(I)cc1)*; Butanoyl(4-(4-MePh)) = Cc1ccc(CCCC(=O)*)cc1; FB = fluorobenzaldehyde oxime; Folate = pteroic acid on Glu; PEG3′ = PEG3 spacer; PEG7′ = PEG7 spacer; AO = aminooxy
Legend:
[1] = target: mouse plasma proteins (CD-1 mouse); assay: plasma protein binding, dialysis 4 h at 37 C, 2 µM, LC-MS/MS
[2] = target: human plasma proteins; assay: as above
[3] = target: mouse plasma proteins (CD-1 mouse); assay: plasma protein binding; measured on the FB form
[4] = target: human plasma proteins; assay: plasma protein binding; measured on the FB form
[5] = target: FOLR1 human recombinant protein (human) (UniProt P15328); assay: ELISA on FOLR1, linker screen
[6] = target: FOLR1 human recombinant protein (human) (UniProt P15328); assay: ELISA on FOLR1

FOLR1 human recombinant protein (human), sequence (P15328 25-233 limits assumed): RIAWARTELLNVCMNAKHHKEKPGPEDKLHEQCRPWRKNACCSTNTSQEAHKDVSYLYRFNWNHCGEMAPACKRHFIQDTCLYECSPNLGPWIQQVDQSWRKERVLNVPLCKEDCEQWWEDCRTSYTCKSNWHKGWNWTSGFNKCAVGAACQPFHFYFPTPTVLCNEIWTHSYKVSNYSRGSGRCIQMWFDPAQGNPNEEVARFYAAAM

Binder | Plasma % Bound [1] | Plasma % Bound [2] | other results
[dH][dS][dH][dT][dA][PEG3′]K(Butanoyl(4-(4-MePh)))K(DOTA)-OH (triazole (positions not given here); not fully specified (N-terminus); printed as folate-hshta-PEG3-Lys(MPBA)-Lys(DOTA); numbers in words are those of the source; also: triazole macrocycle via Pra and Az4, places not given here) [Folate-hshta-PEG3-Lys(MPBA)-Lys(DOTA) (compound #2809)] | 92.1% | 83.3% | 
[dH][dS][dH][dT][dA]K(Butanoyl(4-(4-MePh)))GFK(DOTA)-OH (triazole (positions not given here); not fully specified (N-terminus); also: triazole macrocycle via Pra and Az4, places not given here) [Folate-hshta-Lys(MPBA)-Gly-Phe-Lys(DOTA) (compound #6305)] | 96.3% | 98.3% | 
folate-[dH][dS][dH][dT][dA]GFK(AO) (triazole (positions not given here); not fully specified; printed as Fol-hshta-Gly-Phe-Lys(AO); also: triazole macrocycle via Pra and Az4, places not given here) [Fol-hshta-Gly-Phe-Lys(AO) (compound #3303)] |  |  | Plasma % Bound [3]: 75.5%; Plasma % Bound [4]: 81%
{folate-PEG7′}-[dH][dS][dH][dT][dA] (triazole (positions not given here); also: triazole macrocycle via Pra and Az4, places not given here, biotin label, site not given here) [Folate-PEG7-hshta] |  |  | EC50 [5]: 1 nM
Biotin-[dH][dS][dH][dT][dA] (triazole (positions not given here); also: triazole macrocycle via Pra and Az4, places not given here, folate joined through PEG linker and triazole, site not given here) [folate-hshta Tz heterobiligand] |  |  | EC50 [6]: 0.107 nM
[dD][dE][dR][dY][dT] (triazole (positions not given here); also: triazole macrocycle via Pra and Az4, places not given here, folate conjugated, linker and site not given here) [Folate-deryt heterobiligand (construct not specified)] |  |  | EC50 [5]: 0.28 nM
folate-[dH][dS][dH][dT][dA][PEG3′]GFK(DOTA) (triazole (positions not given here); numbers in words are those of the source; also: triazole macrocycle via Pra and Az4, places not given here) [Fol-hshta-PEG3-Gly-Phe-Lys(DOTA) (compound #6307)] | 40.6% | 41.3% | 
[dD][dE][dR][dY][dT] (triazole (positions not given here); also: flanked by Pra and Az4 joined by 1,2,3-triazole, sides not given here) [deryt (SEQ ID NO:20) PCC alone] |  |  | EC50 [6]: 10000 nM
Biotin-[dK][dY][dE][dE][dT] (triazole (positions not given here); also: folate joined via PEG linker and triazole (Tz), site not placed, triazole macrocycle via Pra and Az4 flanking kyeet, not placed in chain) [folate-kyeet Tz heterobiligand] |  |  | EC50 [6]: 0.149 nM
Folate-[dH][dS][dH][dT][dA]GFK(DOTA)-OH (not fully specified (bridges); printed as folate-hshta-Gly-Phe-Lys(DOTA); also: triazole macrocycle closed by Pra and Lys(N3)/Az4 flanking hshta, not in the given chain) [Folate-hshta-G-F-K(DOTA)-OH (Indi 7327, compound #7327)] | 40.9% | 40.3% | 
folate-[dH][dS][dH][dT][dA][PEG3′]K([AO-FB]) (triazole (positions not given here); numbers in words are those of the source; also: triazole macrocycle via Pra and Az4, places not given here) [Fol-hshta-PEG3-Lys(FB) (compound #2)] | 20.2% | 43% | Plasma % Bound [3]: 20.2%; Plasma % Bound [4]: 43%
folate-[dH][dS][dH][dT][dA][PEG3′]K(DOTA)-OH (triazole (positions not given here); not fully specified; printed as folate-hshta-PEG3-Lys(DOTA); numbers in words are those of the source; also: triazole macrocycle via Pra and Az4, places not given here) [Fol-hshta-PEG3-Lys(DOTA) (compound #1189)] | 29.5% | 46% | 
[dH][dS][dH][dT][dA]K(Butanoyl(4-(4-I-phenyl)))GFK(DOTA) (triazole (positions not given here); not fully specified (N-terminus); also: triazole macrocycle via Pra and Az4, places not given here) [Folate-hshta-Lys(IPBA)-Gly-Phe-Lys(DOTA) (compound #1307)] | 99.6% | 99.5% | 
[dH][dS][dH][dT][dA]KGFK([PEG3′-DOTA]) (triazole (positions not given here); not fully specified (residue 6, N-terminus); also: triazole macrocycle via Pra and Az4, places not given here) [Fol-hshta-Lys(4-MPBA)-Gly-Phe-Lys(PEG3-DOTA) (compound #3302)] | 96.5% | 94.9% | 
folate-[dH][dS][dH][dT][dA]K(Butanoyl(4-(4-I-phenyl)))MVK(DOTA)-OH (triazole (positions not given here); not fully specified; also: triazole macrocycle via Pra and Az4, places not given here) [Folate-hshta-Lys(IPBA)-M-V-Lys(DOTA) (compound #1306)] | 97.1% | 97.3% | 
